For the test, the target named is Tat13-Strep-Tactin (HIV-1 | Streptomyces avidinii). Kind of test: SDS-PAGE of tetramers after heating.

By stoichiometry N is commonly meant the number of molecules, sites or subunits per partner or assembly. In turn, Tat13-Strep-Tactin (designed binder) yielded a stoichiometry N of 4.

These data come from publication PMC3823275.
